# Laboratory results taken from patent publication US20230002489A1 (SHANGHAI EPIMAB BIOTHERAPEUTICS, published 2023).
# Substitutions are numbered along the chain they refer to.
# B1: mAbBCMA-002 (antibody, V domains shown)
# VH: QIQLVQSGPELKKPGETVKISCKASGYSFTNYGLNWVKQAPGKGLKWMGWINTYSGHPTYVDDFKGRFAFSLETSASTAYLQINKLKNEDTSTYFCVREKDDGYRLGLDYWGQGTSVTVSS
# VL: QIVLTQSPAIMSASPGEKVTMTCSASSSVSYMYWYQQRPGSSPRLWIYDTSNLVSGVPARFSGSRSGTSYSLTISGMEAEDAATYYCLQYSGYPYTFGGGTKLEIK
# notes: Mouse anti-BCMA IgG from hybridoma
# B2: FIT1006-6a-Fab (bispecific antibody, not shown: small tags and cut ends)
# chain 1: not shown
# chain 2: EVQLVQSGAEVKKPGASVKVSCKASGYTFTNYYVHWMRQAPGQGLEWIGWISPGSDNTKYNEKFKGRVTLTADTSISTAYMELSRLRSDDTAVYYCARDDYGNYYFDYWGQGTTVTVSSASTKGPSVFPLAPSSKSTSGGTAALGCLVKDYFPEPVTVSWNSGALTSGVHTFPAVLQSSGLYSLSSVVTVPSSSLGTQTYICNVNHKPSNTKVDKKVEPKSC
# chain 3: DIQMTQSPASLSASVGETVTVTCGASENIYGALNWYQRKQGKSPQLLIYGATNLADGISSRFSGSGSGRQFSLKISSLLPDDVATYFCQSVLTTPWTFGGGTKLEIKRTVAAPSVFIFPPSDEQLKSGTASVVCLLNNFYPREAKVQWKVDNALQSGNSQESVTEQDSKDSTYSLSSTLTLSKADYEKHKVYACEVTHQGLSSPVTKSFNRGEC
# notes: FIT-Fab made from FIT1006-6a by papain digestion (Fc removed)
# B3: FIT1006-31a(D-T) (bispecific antibody, human IgG1, kappa, L234A L235A)
# chain 1: not shown
# chain 2: B2 chain 2 with Y27F, T28S, I48M, L70M, A72R
# chain 3: DIQMTQSPSSLSASVGDRVTITCGASENIYGALNWYQQKPGKAPKLLIYGATNLATGIPSRFSGSGSGRDFTLTISSLQPEDFATYYCQSVLTTPWTFGQGTKLEIKRTVAAPSVFIFPPSDEQLKSGTASVVCLLNNFYPREAKVQWKVDNALQSGNSQESVTEQDSKDSTYSLSSTLTLSKADYEKHKVYACEVTHQGLSSPVTKSFNRGEC
# B4: FIT1006-35a(D-T) (bispecific antibody, human IgG1, kappa, L234A L235A)
# chain 1: not shown
# chain 2: B2 chain 2 with Y27F, T28S
# chain 3: B3 chain 3
# B5: FIT1006-8a-Fab (bispecific antibody, not shown: small tags and cut ends)
# chain 1: not shown
# chain 2: B2 chain 2 with M37V
# chain 3: B2 chain 3
# notes: FIT-Fab made from FIT1006-8a by papain digestion (Fc removed)
# B6: FIT1006-4a-Fab (bispecific antibody, not shown: small tags and cut ends)
# chain 1: not shown
# chain 2: B2 chain 2 with Y27F, T28S, I48M, L70M, A72R
# chain 3: B2 chain 3
# B7: FIT1006-31b (D-E) (bispecific antibody, human IgG1, kappa, L234A L235A)
# chain 1: not shown
# chain 2: EVQLVQSGAEVKKPGASVKVSCKASGYTFTNFWMHWVRQAPGQRLEWMGAFYPGNDDTYYNQKFKGRVTITADTSASTAYMELSSLRSEDMAVYYCARSGYYGSSDAMDYWGQGTTVTVSSASTKGPSVFPLAPSSKSTSGGTAALGCLVKDYFPEPVTVSWNSGALTSGVHTFPAVLQSSGLYSLSSVVTVPSSSLGTQTYICNVNHKPSNTKVDKKVEPKSC
# chain 3: not shown
# notes: Humanized BCMA/CD3 FIT-Ig, outer BCMA and inner CD3 Fab, no linkers
# B8: FIT1006-31b(D-T) (bispecific antibody, human IgG1, kappa, L234A L235A)
# chain 1: not shown
# chain 2: B7 chain 2
# chain 3: not shown
# notes: Humanized BCMA/CD3 FIT-Ig, outer BCMA and inner CD3 Fab
# B9: FIT1006-29b(D-A) (bispecific antibody, human IgG1, kappa, L234A L235A)
# chain 1: not shown
# chain 2: B7 chain 2 with T30P, M48I, R67K, V68A, I70L
# chain 3: not shown
# notes: as for B8
# B10: FIT1006-35b(D-T) (bispecific antibody, human IgG1, kappa, L234A L235A)
# chain 1: not shown
# chain 2: B7 chain 2
# chain 3: not shown
# notes: as for B8
# B11: HuEM0006-01-24 (antibody, human IgG1, kappa, L234A L235A, V domains shown)
# VH: EVQLVQSGAEVKKPGASVKVSCKASGFSFTNYYVHWMRQAPGQGLEWMGWISPGSDNTKYNEKFKGRVTMTRDTSISTAYMELSRLRSDDTAVYYCARDDYGNYYFDYWGQGTTVTVSS
# VL: DIVMTQSPDSLAVSLGERATINCKSSQSLLNARTRKNYLAWYQQKPGQPPKLLIYWASTRESGVPDRFSGSGSGTDFTLTISSLQAEDVAVYYCKQSYILRTFGGGTKVEIKR
# notes: Humanized variant of mAbCD3-001; also called HuEM1006-01-24; monospecific anti-CD3 IgG
# B12: huEM0006-01-27 (antibody, human IgG1, kappa, L234A L235A, V domains shown)
# VH: B11 VH with M48I, M70L, R72A
# VL: B11 VL
# Legend:
# BCMA on NCI-H929 cells [1] = target: T1, BCMA on NCI-H929 cells (human, UniProt Q02223 1-184); test: cell-based or functional assay
# T1 sequence (looked up): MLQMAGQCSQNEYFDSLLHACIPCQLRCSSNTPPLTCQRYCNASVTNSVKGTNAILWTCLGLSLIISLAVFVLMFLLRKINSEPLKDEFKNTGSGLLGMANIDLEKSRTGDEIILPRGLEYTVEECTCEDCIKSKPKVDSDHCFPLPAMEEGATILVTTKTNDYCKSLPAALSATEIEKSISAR
# [2] = target: T2, BCMA on HEK293F-BCMA-NF-kB-luc cells (clone 1H2) (UniProt Q02223 1-184, limits assumed); test: cell-based or functional assay
# T2 sequence (looked up): T1 sequence (looked up)
# [3] = target: T3, recombinant human BCMA extracellular domain/Fc dimer (human); test: SPR, Biacore T200, 25 C; antibody captured on anti-mouse IgG Fc, BCMA(ECD)/Fc injected
# T3 construct: also called Human BCMA (ECD); human BCMA(ECD)/Fc
# Protocol: (§1) Briefly, goat anti-mouse IgG Fc antibody was directly immobilized across a biosensor chip, and antibody samples were injected over reaction matrices at a flow rate of 5 μl/min. Mouse anti-BCMA IgG test antibody was injected over the immobilized surface and captured by the immobilized anti-Fc antibodies. Human and cynomolgus BCMA(ECD)/Fc target polypeptides were then injected over the captured mouse anti-BCMA IgG surface. The association and dissociation rate constants, kₒₙ (M⁻¹s⁻¹) and koff (s⁻¹), respectively, were determined with a continuous flow rate of 30 μl/min. Rate constants were derived by making kinetic binding measurements at five different concentrations of target BCMA(ECD) polypeptide. The equilibrium dissociation constant KD (M) of the reaction between antibodies and related target proteins was then calculated from the kinetic rate constants using the formula KD=koff/kₒₙ. Kinetic constants were determined by processing and fitting the data to a 1:1 binding model using Biacore analysis software.
# [4] = target: T4, cynomolgus BCMA(ECD)/Fc target polypeptide (cynomolgus); test: as above
# T4 construct: extracellular domain; also called Cyno BCMA (ECD); cynoBCMA/Fc
# Protocol: as §1
# BCMA on NCI-H929 cells [5] = target: T1, BCMA on NCI-H929 cells; test: flow cytometry on NCI-H929 cells, Mean fluorescence against antibody conc. (nM)
# Protocol: Binding activity of the chimeric bispecific BCMA/CD3 FIT-Ig antibodies was tested via flow cytometry with a human CD3/TCR complex transfected CHO cell line (CHOK1/CD3/TCR cells) and BCMA-expressing NCI-H929 cells. Briefly, 5×10⁵ cells in FACS buffer were seeded into 96 well plates. Cells were centrifuged at 400×g for 5 minutes and supernatants were discarded. For each well, 100 μl serially diluted FIT-Ig or FIT-Fab antibodies were then added and mixed with the cells. Following incubation for 40 minutes at 4° C., plates were washed several times to remove excess antibodies. Secondary antibody (goat anti-huIgG kappa chain specific) was then added and incubated with cells at room temperature for 20 minutes. After another round of centrifugation and washing, cells were resuspended with FACS buffer for reading on a CytoFLEX Flow Cytometer. Results were analyzed and plotted with GraphPad Prism 5.0 software.
# [6] = target: T5, human CD3 on the surface of Jurkat cells (human, UniProt P07766 23-207; P09693 23-182; P04234 22-171); test: flow cytometry on Jurkat/NFAT/luc cells, MFI against antibody conc. (nM)
# T5 construct: whole, on cells; Endogenous CD3 complex of the Jurkat T cell line; also called cell surface CD3 target on Jurkat cells; CD3-expressing Jurkat cells
# T5 sequence (P07766 23-207, chain 1 of 3): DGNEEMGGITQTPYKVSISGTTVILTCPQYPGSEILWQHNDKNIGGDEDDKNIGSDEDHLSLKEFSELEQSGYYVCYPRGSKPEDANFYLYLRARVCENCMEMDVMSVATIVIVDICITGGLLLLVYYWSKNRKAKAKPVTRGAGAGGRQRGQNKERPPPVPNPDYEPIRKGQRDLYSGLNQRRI
# T5 sequence (P09693 23-182, chain 2 of 3): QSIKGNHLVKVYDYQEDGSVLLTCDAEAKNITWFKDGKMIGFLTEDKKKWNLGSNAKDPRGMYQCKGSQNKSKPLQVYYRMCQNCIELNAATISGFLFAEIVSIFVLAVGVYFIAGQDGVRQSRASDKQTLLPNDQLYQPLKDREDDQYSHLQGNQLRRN
# T5 sequence (P04234 22-171, chain 3 of 3): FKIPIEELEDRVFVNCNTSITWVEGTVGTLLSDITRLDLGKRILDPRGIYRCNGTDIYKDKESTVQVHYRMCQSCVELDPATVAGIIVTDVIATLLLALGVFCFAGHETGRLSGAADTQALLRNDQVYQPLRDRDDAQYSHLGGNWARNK
# [7] = target: T6, recombinant huCD3εγ/Fc fusion protein (fusion protein heterodimer) (human); test: SPR, Biacore T200, 25 C; antigen/Fc amine-coupled to the chip, FIT-Ig injected
# T6 construct: also called huCD3/Fc dimer; heterodimeric CD3εγ/Fc fusion protein
# T6 sequence (chain, as listed by the source limits assumed, chain 1 of 2): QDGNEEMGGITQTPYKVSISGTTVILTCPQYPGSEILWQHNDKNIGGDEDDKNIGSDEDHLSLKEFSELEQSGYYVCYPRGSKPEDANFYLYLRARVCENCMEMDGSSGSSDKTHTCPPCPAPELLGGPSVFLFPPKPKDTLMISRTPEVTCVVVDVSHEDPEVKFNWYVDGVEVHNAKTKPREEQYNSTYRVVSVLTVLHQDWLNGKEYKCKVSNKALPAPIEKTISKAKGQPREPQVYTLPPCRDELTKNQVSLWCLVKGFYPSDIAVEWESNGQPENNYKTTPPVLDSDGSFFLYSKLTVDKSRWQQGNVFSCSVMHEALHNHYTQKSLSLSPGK
# T6 sequence (chain, as listed by the source limits assumed, chain 2 of 2): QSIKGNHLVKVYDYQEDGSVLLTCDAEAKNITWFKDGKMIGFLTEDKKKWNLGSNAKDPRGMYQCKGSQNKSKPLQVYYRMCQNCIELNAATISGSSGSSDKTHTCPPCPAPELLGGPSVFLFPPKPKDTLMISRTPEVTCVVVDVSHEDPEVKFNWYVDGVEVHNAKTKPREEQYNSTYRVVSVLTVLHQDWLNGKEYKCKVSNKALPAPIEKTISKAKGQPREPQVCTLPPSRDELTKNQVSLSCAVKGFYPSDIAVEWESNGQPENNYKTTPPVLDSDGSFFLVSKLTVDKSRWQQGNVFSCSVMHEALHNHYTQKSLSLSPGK
# [8] = target: T7, cynoCD3εγ/Fc fusion protein (cynomolgus monkey, UniProt Q95LI5 22-117; Q95LI7 23-113); test: as above
# T7 construct: also called cynomolgus monkey CD3ε/γ heterodimer-Fc fusion protein; not shown: linker and Fc not described for the cynomolgus construct
# T7 sequence (looked up) 1: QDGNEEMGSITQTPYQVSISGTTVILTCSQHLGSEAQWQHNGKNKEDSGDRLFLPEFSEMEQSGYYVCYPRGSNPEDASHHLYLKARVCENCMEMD
# T7 sequence (looked up) 2: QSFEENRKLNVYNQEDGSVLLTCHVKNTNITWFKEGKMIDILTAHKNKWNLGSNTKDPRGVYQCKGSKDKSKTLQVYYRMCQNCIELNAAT
# [9] = target: T4, cynomolgus BCMA(ECD)/Fc target …; test: as above
# [10] = target: T5, human CD3 on the surface of Jurkat cells; test: flow cytometry on Jurkat cells, Median-APC against antibody conc. (nM)
# [11] = target: T3, recombinant human BCMA extracellular …; test: SPR, Biacore T200, 25 C; antigen/Fc amine-coupled to the chip, FIT-Ig injected
# BCMA on NCI-H929 cells [12] = target: T1, BCMA on NCI-H929 cells; test: flow cytometry on NCI-H929 cells, MFI
binder,measurement,setting,value
B1,"EC50 of inhibition of BAFF-induced NF-kB phosphorylation in NCI-H929 cells (inhibition %), unit from the axis",BCMA on NCI-H929 cells [1],34.8 nM
same,"EC50 of inhibition of the BAFF-induced NF-kB luciferase signal in HEK293F-BCMA-NF-kB-luc cells (inhibition %; the curve reaches only about 30 % at 100 nM), unit from the axis",[2],20.1 nM
same,Kd,[3],13.8 nM
same,koff,[3],0.00292 s⁻¹
same,kon,[3],212000 M⁻¹ s⁻¹
same,Kd,[4],7.55 nM
same,koff,[4],0.000304 s⁻¹
same,kon,[4],40300 M⁻¹ s⁻¹
B2,binding result,BCMA on NCI-H929 cells [5],binds
B3,EC50 (read off the curve),[6],~1 nM
B4,binding result,[6],binds
B5,binding result,BCMA on NCI-H929 cells [5],binds
B6,binding result,BCMA on NCI-H929 cells [5],binds
B7,Kd,[7],17.1 nM
same,koff,[7],0.00574 s⁻¹
same,kon,[7],337000 M⁻¹ s⁻¹
same,Kd,[8],10.8 nM
same,koff,[8],0.00632 s⁻¹
same,kon,[8],583000 M⁻¹ s⁻¹
same,Kd,[9],1.61 nM
same,koff,[9],0.000167 s⁻¹
same,kon,[9],104000 M⁻¹ s⁻¹
B8,EC50 (read off the curve),[10],~3 nM
same,Kd,[7],15.6 nM
same,koff,[7],0.00572 s⁻¹
same,kon,[7],367000 M⁻¹ s⁻¹
same,Kd,[8],11.4 nM
same,koff,[8],0.00621 s⁻¹
same,kon,[8],546000 M⁻¹ s⁻¹
same,Kd,[9],1.02 nM
same,koff,[9],0.000191 s⁻¹
same,kon,[9],188000 M⁻¹ s⁻¹
B9,Kd,[7],16.7 nM
same,koff,[7],0.00585 s⁻¹
same,kon,[7],349000 M⁻¹ s⁻¹
same,Kd,[8],11.2 nM
same,koff,[8],0.00607 s⁻¹
same,kon,[8],541000 M⁻¹ s⁻¹
same,Kd,[11],< 0.057 nM
same,koff,[11],< 5e-06 s⁻¹
same,kon,[11],87800 M⁻¹ s⁻¹
same,Kd,[9],1.09 nM
same,koff,[9],0.00021 s⁻¹
same,kon,[9],192000 M⁻¹ s⁻¹
B10,binding result,[10],binds
B11,binding result,BCMA on NCI-H929 cells [12],no binding (tested: 100 nM)
same,EC50 (read off the curve),[6],~0.5 nM
B12,binding result,BCMA on NCI-H929 cells [12],no binding (tested: 100 nM)
same,binding result,[6],binds
